Earlier results in article PMC10171305.
Read-outs that look alike come from different tables or passages of the source.

Columns and labels:
Spike (SARS-CoV-2) [1] = biological target: Spike (SARS-CoV-2) (UniProt P0DTC2)
Spike (SARS-CoV-2) [2] = biological target: Spike (SARS-CoV-2) (UniProt P0DTC2); remark: listed apart in the source

ASGR1, sequence (P07306 whole entry): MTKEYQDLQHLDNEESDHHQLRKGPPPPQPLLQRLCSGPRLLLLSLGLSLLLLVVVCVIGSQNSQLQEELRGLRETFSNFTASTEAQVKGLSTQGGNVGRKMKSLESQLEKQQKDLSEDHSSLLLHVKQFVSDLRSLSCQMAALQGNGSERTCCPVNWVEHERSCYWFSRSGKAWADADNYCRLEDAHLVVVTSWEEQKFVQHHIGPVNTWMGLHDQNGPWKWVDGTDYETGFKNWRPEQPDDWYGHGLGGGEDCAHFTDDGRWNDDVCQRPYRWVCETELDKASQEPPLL
KREMEN1, sequence (Q96MU8 20-392): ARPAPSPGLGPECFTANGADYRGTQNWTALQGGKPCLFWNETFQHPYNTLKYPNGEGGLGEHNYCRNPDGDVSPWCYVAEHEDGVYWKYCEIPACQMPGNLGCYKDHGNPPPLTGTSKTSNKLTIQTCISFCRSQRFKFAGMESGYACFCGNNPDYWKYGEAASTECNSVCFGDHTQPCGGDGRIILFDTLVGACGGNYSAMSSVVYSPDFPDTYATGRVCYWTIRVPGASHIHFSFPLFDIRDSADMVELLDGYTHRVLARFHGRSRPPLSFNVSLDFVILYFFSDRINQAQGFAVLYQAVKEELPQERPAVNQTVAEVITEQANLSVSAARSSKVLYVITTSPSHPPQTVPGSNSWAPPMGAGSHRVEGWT

| Substance | Kd (Spike (SARS-CoV-2) [1]) | Kd (Spike (SARS-CoV-2) [2]) |
| --- | --- | --- |
| ASGR1 (from UniProt P07306) | 0.0948 µM | – |
| KREMEN1 (from UniProt Q96MU8) | – | 0.0193 µM |
